The results in this text go back to PMC6624373.

Common to all, as to conditions: remark: other sources report otherwise
Assay [1] deals with T1, lamin A (human, mature form, without tags, wild type) (human), P02545.
T1 chain: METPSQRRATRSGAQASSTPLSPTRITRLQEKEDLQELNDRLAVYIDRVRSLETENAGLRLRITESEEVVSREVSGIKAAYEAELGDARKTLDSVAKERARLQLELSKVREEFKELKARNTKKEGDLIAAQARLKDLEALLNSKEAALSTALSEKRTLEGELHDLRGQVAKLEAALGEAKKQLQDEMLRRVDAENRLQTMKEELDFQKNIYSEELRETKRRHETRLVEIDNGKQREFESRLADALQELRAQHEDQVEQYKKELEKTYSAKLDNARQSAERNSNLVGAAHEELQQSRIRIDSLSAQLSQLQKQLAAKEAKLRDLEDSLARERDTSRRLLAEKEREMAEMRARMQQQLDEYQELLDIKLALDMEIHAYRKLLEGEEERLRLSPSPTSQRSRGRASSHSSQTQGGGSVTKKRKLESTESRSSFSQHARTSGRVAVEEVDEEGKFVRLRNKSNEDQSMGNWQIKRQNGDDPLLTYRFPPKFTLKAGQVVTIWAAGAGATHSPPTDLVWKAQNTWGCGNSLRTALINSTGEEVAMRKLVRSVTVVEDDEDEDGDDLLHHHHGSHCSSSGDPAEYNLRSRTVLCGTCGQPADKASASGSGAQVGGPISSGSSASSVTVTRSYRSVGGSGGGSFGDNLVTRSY
In words: rotary metal shadowing EM; un-cross-linked lamin A at 0.1 mg/mL in Tris buffer (25 mM Tris, 250 mM NaCl, pH 8.0) or NaPi buffer (100 mM NaPi, 250 mM NaCl, pH 8.0), 30% glycerol, sprayed on mica; dimers and head-to-tail tetramers.

In assay [2] the target is T1, lamin A (human, mature form, without …). Nature of the assay: AUC; sedimentation velocity, 0.3 mg/mL lamin A in Tris or NaPi buffer, 45,000 rpm, 20 °C, interference optics, c(s) model.
The target is the same in assay [3]. The description is as above.
For assay [4] the target is unchanged. In words: cross-linking; 0.4 mg/mL lamin A in NaPi buffer, EDC:S-NHS (1:4:8.8 by weight lamin A:EDC:S-NHS), 30 min, room temperature; product bands resolved by SDS-PAGE, gel-extracted and seen by rotary metal shadowing EM.
The target in assay [5] is T2, 6xHis-tagged lamin A (human, mature form) (human), P02545.
T2 chain: T1 chain
In words: pull-down; Ni-NTA pull-down of a 1:1 mix of un-tagged and 6xHis-tagged lamin A monomers after gel-extraction and refolding.

Where “and” joins values, the source holds several entries; their conditions need not be identical. Equal values may be shown once.

B1: lamin A (human, mature form, without tags, wild type), P02545 1-646 (natural protein)
chain: T1 chain
The stoichiometry N is a count of units in the complex or per binding partner. B1: in assay [1], the dimers seen per head-to-tail tetramer (EM) (dimers per tetramer) lay within 20 to 25. For the same molecule, the stoichiometry N in assay [1] was 2 and 4; in assay [2] it was 2; in assay [3], 4; in assay [4], 2 and 4. The molecule further registered a percent of un-tagged lamin A retained on the beads in assay [5] of 50%.
